Assay results as given in paper PMC7840601 (2020).

Molecular target: human C3b (CompTech) (human)
Experiment: SPR

Sequence of human C3b (CompTech) (human) (chain, as listed by the source, chain 1 of 2): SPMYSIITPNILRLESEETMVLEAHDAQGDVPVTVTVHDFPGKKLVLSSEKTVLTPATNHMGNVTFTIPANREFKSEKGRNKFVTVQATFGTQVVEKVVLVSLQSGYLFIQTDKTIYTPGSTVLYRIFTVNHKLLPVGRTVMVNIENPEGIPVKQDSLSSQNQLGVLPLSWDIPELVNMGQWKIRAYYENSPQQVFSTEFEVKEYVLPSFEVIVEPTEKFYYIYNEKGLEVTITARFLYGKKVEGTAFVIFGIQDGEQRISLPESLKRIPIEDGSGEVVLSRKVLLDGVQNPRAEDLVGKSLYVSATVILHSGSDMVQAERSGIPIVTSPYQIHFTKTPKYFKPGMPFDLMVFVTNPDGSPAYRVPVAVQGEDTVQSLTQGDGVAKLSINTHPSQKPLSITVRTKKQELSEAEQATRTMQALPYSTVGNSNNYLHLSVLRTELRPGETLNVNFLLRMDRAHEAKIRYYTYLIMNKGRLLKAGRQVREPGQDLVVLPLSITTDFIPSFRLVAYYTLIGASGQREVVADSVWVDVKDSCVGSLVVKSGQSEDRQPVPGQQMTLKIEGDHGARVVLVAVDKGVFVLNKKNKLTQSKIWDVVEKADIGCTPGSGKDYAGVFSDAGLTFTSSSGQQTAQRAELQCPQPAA
Sequence of human C3b (CompTech) (human) (chain, as listed by the source, chain 2 of 2): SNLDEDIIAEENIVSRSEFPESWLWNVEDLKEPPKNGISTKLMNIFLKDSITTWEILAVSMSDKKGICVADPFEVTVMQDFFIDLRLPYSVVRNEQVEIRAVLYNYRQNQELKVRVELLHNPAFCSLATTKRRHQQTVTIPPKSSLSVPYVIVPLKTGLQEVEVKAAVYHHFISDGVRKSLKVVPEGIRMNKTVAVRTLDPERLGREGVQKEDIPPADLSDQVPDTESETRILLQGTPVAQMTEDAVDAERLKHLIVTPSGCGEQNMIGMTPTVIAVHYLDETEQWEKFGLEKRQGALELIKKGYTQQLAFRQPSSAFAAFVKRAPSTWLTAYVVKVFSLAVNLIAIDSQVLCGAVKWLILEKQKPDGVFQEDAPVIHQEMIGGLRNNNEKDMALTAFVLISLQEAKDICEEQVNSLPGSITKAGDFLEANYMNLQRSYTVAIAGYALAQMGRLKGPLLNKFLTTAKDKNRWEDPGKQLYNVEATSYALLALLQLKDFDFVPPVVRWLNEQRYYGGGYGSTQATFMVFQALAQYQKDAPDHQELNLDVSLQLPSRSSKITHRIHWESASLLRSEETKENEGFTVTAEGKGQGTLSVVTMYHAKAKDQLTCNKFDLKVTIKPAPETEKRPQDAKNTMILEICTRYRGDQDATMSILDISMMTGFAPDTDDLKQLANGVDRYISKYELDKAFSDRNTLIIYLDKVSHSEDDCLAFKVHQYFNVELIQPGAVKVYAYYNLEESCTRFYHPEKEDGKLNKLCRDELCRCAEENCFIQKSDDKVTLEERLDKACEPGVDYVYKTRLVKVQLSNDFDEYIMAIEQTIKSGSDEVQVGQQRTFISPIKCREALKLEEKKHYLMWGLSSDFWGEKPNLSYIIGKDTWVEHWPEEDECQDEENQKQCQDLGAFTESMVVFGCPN

- Kd: 18.1 µM
B1: FH1-4 WT (complement factor H CCPs 1-4, wild type) (domain or fragment)
chain: EDCNELPPRRNTEILTGSWSDQTYPEGTQAIYKCRPGYRSLGNVIMVCRKGEWVALNPLRKCQKRPCGHPGDTPFGTFTLTGGNVFEYGVKAVYTCNEGYQLLGEINYRECDTDGWTNDIPICEVVKCLPVTAPENGKIVSSAMEPDREYHFGQAVRFVCNSGYKIEGDEEMHCSDDGFWSKEKPKCVEISCKSPDVINGSPISQKIIYKENERFQYKCNMGYEYSERGDAVCTESGWRPLPSCE
